# Experimental data: article PMC3581772
# T1: I59T human lysozyme (human) (UniProt P61626)
# T1 sequence: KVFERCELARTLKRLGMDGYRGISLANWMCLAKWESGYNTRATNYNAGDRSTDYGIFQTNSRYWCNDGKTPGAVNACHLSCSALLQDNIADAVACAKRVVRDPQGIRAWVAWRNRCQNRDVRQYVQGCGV
# B1: native α2-macroglobulin (natural protein)
# chain: SVSGKPQYMVLVPSLLHTETTEKGCVLLSYLNETVTVSASLESVRGNRSLFTDLEAENDVLHCVAFAVPKSSSNEEVMFLTVQVKGPTQEFKKRTTVMVKNEDSLVFVQTDKSIYKPGQTVKFRVVSMDENFHPLNELIPLVYIQDPKGNRIAQWQSFQLEGGLKQFSFPLSSEPFQGSYKVVVQKKSGGRTEHPFTVEEFVLPKFEVQVTVPKIITILEEEMNVSVCGLYTYGKPVPGHVTVSICRKYSDASDCHGEDSQAFCEKFSGQLNSHGCFYQQVKTKVFQLKRKEYEMKLHTEAQIQEEGTVVELTGRQSSEITRTITKLSFVKVDSHFRQGIPFFGQVRLVDGKGVPIPNKVIFIRGNEANYYSNATTDEHGLVQFSINTTNVMGTSLTVRVNYKDRSPCYGYQWVSEEHEEAHHTAYLVFSPSKSFVHLEPMSHELPCGHTQTVQAHYILNGGTLLGLKKLSFYYLIMAKGGIVRTGTHGLLVKQEDMKGHFSISIPVKSDIAPVARLLIYAVLPTGDVIGDSAKYDVENCLANKVDLSFSPSQSLPASHAHLRVTAAPQSVCALRAVDQSVLLMKPDAELSASSVYNLLPEKDLTGFPGPLNDQDNEDCINRHNVYINGITYTPVSSTNEKDMYSFLEDMGLKAFTNSKIRKPKMCPQLQQYEMHGPEGLRVGFYESDVMGRGHARLVHVEEPHTETVRKYFPETWIWDLVVVNSAGVAEVGVTVPDTITEWKAGAFCLSEDAGLGISSTASLRAFQPFFVELTMPYSVIRGEAFTLKATVLNYLPKCIRVSVQLEASPAFLAVPVEKEQAPHCICANGRQTVSWAVTPKSLGNVNFTVSAEALESQELCGTEVPSVPEHGRKDTVIKPLLVEPEGLEKETTFNSLLCPSGGEVSEELSLKLPPNVVEESARASVSVLGDILGSAMQNTQNLLQMPYGCGEQNMVLFAPNIYVLDYLNETQQLTPEIKSKAIGYLNTGYQRQLNYKHYDGSYSTFGERYGRNQGNTWLTAFVLKTFAQARAYIFIDEAHITQALIWLSQRQKDNGCFRSSGSLLNNAIKGGVEDEVTLSAYITIALLEIPLTVTHPVVRNALFCLESAWKTAQEGDHGSHVYTKALLAYAFALAGNQDKRKEVLKSLNEEAVKKDNSVHWERPQKPKAPVGHFYEPQAPSAEVEMTSYVLLAYLTAQPAPTSEDLTSATNIVKWITKQQNAQGGFSSTQDTVVALHALSKYGAATFTRTGKAAQVTIQSSGTFSSKFQVDNNNRLLLQQVSLPELPGEYSMKVTGEGCVYLQTSLKYNILPEKEEFPFALGVQTLPQTCDEPKAHTSFQISLSVSYTGSRSASNMAIVDVKMVSGFIPLKPTVKMLERSNHVSRTEVSSNHVLIYLDKVSNQTLSLFFTVLQDVPVRDLKPAIVKVYDYYETDEFAIAEYNAPCSKDLGNA
# How the values were obtained:
# [1] = target: T1, I59T human lysozyme (human)
# [2] = target: T1, I59T human lysozyme (human); remark: listed apart in the source
# [3] = target: amyloid β peptide Aβ(1–42) (UniProt P05067)
binder,measurement,setting,value
B1,I59T lysozyme left soluble at the endpoint (SDS–PAGE of supernatants),[1],> 90%
same,"decrease of ThT fluorescence at the endpoint of I59T lysozyme fibril formation, lysozyme-to-α2M 10:1",[2],> 90%
same,"suppression of ThT signal at the endpoint of Aβ(1–42) fibril formation, Aβ-to-α2M 10:1",[3],> 80%
